From the supplement of paper PMC9112550, “Optimization of the antimicrobial peptide Bac7 by deep mutational scanning” (BMC Biology, 2022)

system: Escherichia coli TOP10; test: shrunken log2 fold change of peptide-encoding DNA abundance (4.5 h post-induction vs induction); higher = less antimicrobial activity (less host growth inhibition); conditions: time post-induction: 4.5 h; library: site-saturation at positions 5, 18, 19, 20
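Also: peptides expressed intracellularly from a pBAD plasmid library in pooled LB shake-flask culture, induced with 0.3% L-arabinose, DNA abundance read by NGS, three biological replicates, DESeq2 with apeglm shrinkage.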

Row | Sequence | shrunken log2 fold change
1 | RRIRCRPPRLPRPRPRPFIRPRP | -0.249
2 | RRIRYRPPRLPRPRPRPPYGPRP | -0.54
3 | RRIRIRPPRLPRPRPRPESIPRP | -0.12
4 | RRIRMRPPRLPRPRPRPTKIPRP | 0.318
5 | RRIRHRPPRLPRPRPRPIVQPRP | -0.115
6 | RRIRIRPPRLPRPRPRPWGDPRP | -0.38
7 | RRIRGRPPRLPRPRPRPGELPRP | 0.61
8 | RRIRLRPPRLPRPRPRPAHQPRP | -0.0828
9 | RRIRERPPRLPRPRPRPVAWPRP | 0.00482
10 | RRIRGRPPRLPRPRPRPDMVPRP | -0.0595
11 | RRIRKRPPRLPRPRPRPGSWPRP | 0.571
12 | RRIRTRPPRLPRPRPRPKNFPRP | -0.0884
13 | RRIRMRPPRLPRPRPRPKAVPRP | 0.0216
14 | RRIRWRPPRLPRPRPRPKLQPRP | 0.182
15 | RRIRARPPRLPRPRPRPKFCPRP | 0.22
16 | RRIRLRPPRLPRPRPRPYWKPRP | -0.0713
17 | RRIRQRPPRLPRPRPRPDRPPRP | 0.00639
18 | RRIRYRPPRLPRPRPRPEYLPRP | -0.139
19 | RRIRSRPPRLPRPRPRPYFRPRP | -0.853
20 | RRIRSRPPRLPRPRPRPEFLPRP | 0.278
21 | RRIRRRPPRLPRPRPRPRFCPRP | 0.421
22 | RRIRSRPPRLPRPRPRPNTLPRP | -0.373
23 | RRIRQRPPRLPRPRPRPFRPPRP | -0.303
24 | RRIRFRPPRLPRPRPRPCLTPRP | -0.134
25 | RRIRERPPRLPRPRPRPGRWPRP | 0.796

Row | Sequence | shrunken log2 fold change
26 | RRIRCRPPRLPRPRPRPYRTPRP | -0.132
27 | RRIRFRPPRLPRPRPRPGQPPRP | 0.199
28 | RRIRDRPPRLPRPRPRPGCFPRP | 0.565
29 | RRIRFRPPRLPRPRPRPVEIPRP | -0.391
30 | RRIRVRPPRLPRPRPRPKRNPRP | 0.166
31 | RRIRWRPPRLPRPRPRPVLHPRP | -0.0358
32 | RRIRLRPPRLPRPRPRPTSDPRP | 0.0874
33 | RRIRCRPPRLPRPRPRPWHMPRP | -0.119
34 | RRIRVRPPRLPRPRPRPDITPRP | -0.305
35 | RRIRPRPPRLPRPRPRPNDMPRP | -0.208
36 | RRIRQRPPRLPRPRPRPIRDPRP | -0.161
37 | RRIRDRPPRLPRPRPRPGMSPRP | 0.0134
38 | RRIRTRPPRLPRPRPRPSHWPRP | -0.148
39 | RRIRDRPPRLPRPRPRPFSQPRP | -0.172
40 | RRIRCRPPRLPRPRPRPELNPRP | -0.137
41 | RRIRARPPRLPRPRPRPISHPRP | -0.131
42 | RRIRYRPPRLPRPRPRPFLTPRP | -0.871
43 | RRIRHRPPRLPRPRPRPKAEPRP | 0.0672
44 | RRIRPRPPRLPRPRPRPAQAPRP | 0.329
45 | RRIRSRPPRLPRPRPRPLTNPRP | -0.101
46 | RRIRHRPPRLPRPRPRPHDLPRP | 0.0509
47 | RRIRMRPPRLPRPRPRPCYLPRP | 0.0715
48 | RRIRIRPPRLPRPRPRPVQPPRP | 0.204
49 | RRIRYRPPRLPRPRPRPQPKPRP | -0.0232
50 | RRIRMRPPRLPRPRPRPTQQPRP | 0.54

Row | Sequence | shrunken log2 fold change
51 | RRIRPRPPRLPRPRPRPRPTPRP | 0.869
52 | RRIRNRPPRLPRPRPRPSTQPRP | -0.502
53 | RRIRCRPPRLPRPRPRPDMMPRP | 0.00614
54 | RRIRDRPPRLPRPRPRPEDRPRP | 0.0616
55 | RRIRCRPPRLPRPRPRPNHMPRP | -0.255
56 | RRIRKRPPRLPRPRPRPLTAPRP | 0.403
57 | RRIRPRPPRLPRPRPRPRSVPRP | 0.0746
58 | RRIRPRPPRLPRPRPRPMWCPRP | -0.0757
59 | RRIRVRPPRLPRPRPRPWPFPRP | 0.14
60 | RRIRNRPPRLPRPRPRPSGHPRP | -0.141
61 | RRIRSRPPRLPRPRPRPPWFPRP | 0.238
62 | RRIRNRPPRLPRPRPRPPSLPRP | -0.0145
63 | RRIRHRPPRLPRPRPRPFGFPRP | -0.0586
64 | RRIRGRPPRLPRPRPRPMISPRP | 1.18
65 | RRIRTRPPRLPRPRPRPSSPPRP | -0.312
66 | RRIRTRPPRLPRPRPRPVEEPRP | -0.08
67 | RRIRARPPRLPRPRPRPNWIPRP | 0.00102
68 | RRIRLRPPRLPRPRPRPSEMPRP | -0.0614
69 | RRIRKRPPRLPRPRPRPTITPRP | -0.1
70 | RRIRMRPPRLPRPRPRPLHQPRP | 0.0887
71 | RRIRARPPRLPRPRPRPSPHPRP | 0.187
72 | RRIRVRPPRLPRPRPRPIISPRP | -0.418
73 | RRIRMRPPRLPRPRPRPNSSPRP | -0.1
74 | RRIRRRPPRLPRPRPRPVVYPRP | 0.152
75 | RRIRTRPPRLPRPRPRPKPWPRP | 0.363

Row | Sequence | shrunken log2 fold change
76 | RRIRWRPPRLPRPRPRPIFIPRP | -0.592
77 | RRIRLRPPRLPRPRPRPMERPRP | -0.00192
78 | RRIRWRPPRLPRPRPRPTHPPRP | 0.709
79 | RRIRTRPPRLPRPRPRPHAWPRP | 3.26
80 | RRIRDRPPRLPRPRPRPTYKPRP | -0.529
81 | RRIRCRPPRLPRPRPRPKWGPRP | 0.496
82 | RRIRSRPPRLPRPRPRPKNSPRP | -0.431
83 | RRIRARPPRLPRPRPRPRCDPRP | 0.324
84 | RRIRERPPRLPRPRPRPCLGPRP | -0.0295
85 | RRIRHRPPRLPRPRPRPDHKPRP | -0.274
86 | RRIRKRPPRLPRPRPRPVLPPRP | 0.338
87 | RRIRGRPPRLPRPRPRPSQIPRP | -0.111
88 | RRIRYRPPRLPRPRPRPPTLPRP | -0.274
89 | RRIRGRPPRLPRPRPRPNEVPRP | 0.0747
90 | RRIRYRPPRLPRPRPRPQQQPRP | 0.00548
91 | RRIRVRPPRLPRPRPRPKNHPRP | -0.18
92 | RRIRARPPRLPRPRPRPHEIPRP | -0.107
93 | RRIRFRPPRLPRPRPRPHWGPRP | -0.0695
94 | RRIRGRPPRLPRPRPRPGLTPRP | 1.09
95 | RRIRQRPPRLPRPRPRPEHIPRP | -0.0129
96 | RRIRCRPPRLPRPRPRPEHCPRP | -0.0294
97 | RRIRQRPPRLPRPRPRPFSFPRP | -0.272
98 | RRIRMRPPRLPRPRPRPGNDPRP | 1.19
99 | RRIRMRPPRLPRPRPRPECTPRP | 2.91
100 | RRIRGRPPRLPRPRPRPDGWPRP | 1.34

Row | Sequence | shrunken log2 fold change
101 | RRIRSRPPRLPRPRPRPHLWPRP | -0.0232
102 | RRIRDRPPRLPRPRPRPHAQPRP | -0.0623
103 | RRIRPRPPRLPRPRPRPEKYPRP | -0.562
104 | RRIRVRPPRLPRPRPRPWWMPRP | -0.26
105 | RRIRTRPPRLPRPRPRPIQRPRP | 0.0582
106 | RRIRNRPPRLPRPRPRPWSKPRP | -0.167
107 | RRIRQRPPRLPRPRPRPLNKPRP | -0.503
108 | RRIRCRPPRLPRPRPRPPKTPRP | -0.00862
109 | RRIRPRPPRLPRPRPRPQQRPRP | 0.0201
110 | RRIRWRPPRLPRPRPRPPNMPRP | 0.0854
111 | RRIRYRPPRLPRPRPRPMILPRP | -0.287
112 | RRIRIRPPRLPRPRPRPDVLPRP | -1
113 | RRIRGRPPRLPRPRPRPNTFPRP | 0.00502
114 | RRIRERPPRLPRPRPRPDLTPRP | 0.0375
115 | RRIRLRPPRLPRPRPRPHTYPRP | -0.257
116 | RRIRFRPPRLPRPRPRPNGMPRP | -0.0957
117 | RRIRKRPPRLPRPRPRPGNTPRP | -0.0331
118 | RRIRCRPPRLPRPRPRPWVIPRP | -0.11
119 | RRIRYRPPRLPRPRPRPARDPRP | 0.197
120 | RRIRYRPPRLPRPRPRPQNWPRP | -0.611
121 | RRIRHRPPRLPRPRPRPDPHPRP | 0.000754
122 | RRIRTRPPRLPRPRPRPKVAPRP | 0.0317
123 | RRIRVRPPRLPRPRPRPEAYPRP | -0.0262
124 | RRIRRRPPRLPRPRPRPNVDPRP | -0.125
125 | RRIRYRPPRLPRPRPRPFQSPRP | -0.0418

Row | Sequence | shrunken log2 fold change
126 | RRIRERPPRLPRPRPRPYYMPRP | -0.785
127 | RRIRYRPPRLPRPRPRPDKLPRP | -0.0621
128 | RRIRHRPPRLPRPRPRPTFQPRP | -0.067
129 | RRIRQRPPRLPRPRPRPDFRPRP | 0.0259
130 | RRIRDRPPRLPRPRPRPPHTPRP | 0.198
131 | RRIRGRPPRLPRPRPRPNYKPRP | 0.211
132 | RRIRVRPPRLPRPRPRPQLDPRP | 0.269
133 | RRIRLRPPRLPRPRPRPFSLPRP | -0.127
134 | RRIRRRPPRLPRPRPRPMDVPRP | 0.0427
135 | RRIRNRPPRLPRPRPRPHSQPRP | -0.392
136 | RRIRARPPRLPRPRPRPNRRPRP | 0.366
137 | RRIRMRPPRLPRPRPRPAWTPRP | 0.08
138 | RRIRGRPPRLPRPRPRPPEMPRP | 1.62
139 | RRIRDRPPRLPRPRPRPMTIPRP | 0.0371
140 | RRIRERPPRLPRPRPRPAATPRP | 0.222
141 | RRIRLRPPRLPRPRPRPQPCPRP | -0.215
142 | RRIRPRPPRLPRPRPRPSRQPRP | 0.357
143 | RRIRKRPPRLPRPRPRPTGNPRP | 0.563
144 | RRIRKRPPRLPRPRPRPQLFPRP | 0.364
145 | RRIRRRPPRLPRPRPRPHGSPRP | -0.0609
146 | RRIRDRPPRLPRPRPRPCENPRP | 0.0231
147 | RRIRIRPPRLPRPRPRPRVEPRP | -0.0648
148 | RRIRMRPPRLPRPRPRPHHFPRP | -0.00112
149 | RRIRDRPPRLPRPRPRPLHAPRP | 0.317
150 | RRIRFRPPRLPRPRPRPHLNPRP | -0.624
